Results from paper PMC3427744.

Assays:
[1] = target: commercial rituximab; test: SPR
[2] = target: non-fucosylated G2 glycoform of rituximab (10); test: SPR

Row | Substance | Kd [1] [µM] | Kd [2] [µM]
1 | FcγRIIb (from UniProt P31994 43-310) (receptor) | 2 | 
2 | FcγRIIIa-F158 (from UniProt P08637 17-254) (receptor) | 1.04 | 0.123
